Values joined by “and” are separate entries in the source; they are usually repeats but may differ in a detail not shown here. Identical values can stand only once.
T1: human Notch1 NRR_Avi_His recombinant protein (human, UniProt P46531 1434-1737)
T1 construct: Secreted from CHO-PACE cells; cleaved at S1 into an N-terminal ~26 kDa half (LNR-A, B, C, HD1) and a C-terminal ~12 kDa half (HD2 and tag) that stay associated non-covalently; written here as one chain; also called recombinant human Notch1 NRR; human Notch1 NRR immunogen
T1 sequence: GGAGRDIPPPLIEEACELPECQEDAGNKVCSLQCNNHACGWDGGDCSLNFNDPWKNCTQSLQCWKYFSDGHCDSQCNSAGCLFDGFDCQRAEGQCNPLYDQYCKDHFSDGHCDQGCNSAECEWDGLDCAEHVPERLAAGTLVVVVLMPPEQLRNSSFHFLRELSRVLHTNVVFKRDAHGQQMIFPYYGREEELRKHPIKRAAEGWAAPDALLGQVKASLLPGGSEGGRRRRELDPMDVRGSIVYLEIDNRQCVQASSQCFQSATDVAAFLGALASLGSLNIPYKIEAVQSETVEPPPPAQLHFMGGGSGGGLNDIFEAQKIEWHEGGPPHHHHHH


Assays:
[1] = target: T2, full-length human Notch1 expressed on the cell surface (human, UniProt P46531 19-2555); test: cell-based or functional assay
[2] = target: Notch1 receptor with a 12 amino acid insertion at position 1595 (CCRF-CEM cells) (UniProt P46531 19-2555); test: cell-based or functional assay
Sequence of Notch1 receptor with a 12 amino acid insertion at position 1595 (CCRF-CEM cells) (P46531 other isoform, or with tags, fused parts or gaps limits assumed): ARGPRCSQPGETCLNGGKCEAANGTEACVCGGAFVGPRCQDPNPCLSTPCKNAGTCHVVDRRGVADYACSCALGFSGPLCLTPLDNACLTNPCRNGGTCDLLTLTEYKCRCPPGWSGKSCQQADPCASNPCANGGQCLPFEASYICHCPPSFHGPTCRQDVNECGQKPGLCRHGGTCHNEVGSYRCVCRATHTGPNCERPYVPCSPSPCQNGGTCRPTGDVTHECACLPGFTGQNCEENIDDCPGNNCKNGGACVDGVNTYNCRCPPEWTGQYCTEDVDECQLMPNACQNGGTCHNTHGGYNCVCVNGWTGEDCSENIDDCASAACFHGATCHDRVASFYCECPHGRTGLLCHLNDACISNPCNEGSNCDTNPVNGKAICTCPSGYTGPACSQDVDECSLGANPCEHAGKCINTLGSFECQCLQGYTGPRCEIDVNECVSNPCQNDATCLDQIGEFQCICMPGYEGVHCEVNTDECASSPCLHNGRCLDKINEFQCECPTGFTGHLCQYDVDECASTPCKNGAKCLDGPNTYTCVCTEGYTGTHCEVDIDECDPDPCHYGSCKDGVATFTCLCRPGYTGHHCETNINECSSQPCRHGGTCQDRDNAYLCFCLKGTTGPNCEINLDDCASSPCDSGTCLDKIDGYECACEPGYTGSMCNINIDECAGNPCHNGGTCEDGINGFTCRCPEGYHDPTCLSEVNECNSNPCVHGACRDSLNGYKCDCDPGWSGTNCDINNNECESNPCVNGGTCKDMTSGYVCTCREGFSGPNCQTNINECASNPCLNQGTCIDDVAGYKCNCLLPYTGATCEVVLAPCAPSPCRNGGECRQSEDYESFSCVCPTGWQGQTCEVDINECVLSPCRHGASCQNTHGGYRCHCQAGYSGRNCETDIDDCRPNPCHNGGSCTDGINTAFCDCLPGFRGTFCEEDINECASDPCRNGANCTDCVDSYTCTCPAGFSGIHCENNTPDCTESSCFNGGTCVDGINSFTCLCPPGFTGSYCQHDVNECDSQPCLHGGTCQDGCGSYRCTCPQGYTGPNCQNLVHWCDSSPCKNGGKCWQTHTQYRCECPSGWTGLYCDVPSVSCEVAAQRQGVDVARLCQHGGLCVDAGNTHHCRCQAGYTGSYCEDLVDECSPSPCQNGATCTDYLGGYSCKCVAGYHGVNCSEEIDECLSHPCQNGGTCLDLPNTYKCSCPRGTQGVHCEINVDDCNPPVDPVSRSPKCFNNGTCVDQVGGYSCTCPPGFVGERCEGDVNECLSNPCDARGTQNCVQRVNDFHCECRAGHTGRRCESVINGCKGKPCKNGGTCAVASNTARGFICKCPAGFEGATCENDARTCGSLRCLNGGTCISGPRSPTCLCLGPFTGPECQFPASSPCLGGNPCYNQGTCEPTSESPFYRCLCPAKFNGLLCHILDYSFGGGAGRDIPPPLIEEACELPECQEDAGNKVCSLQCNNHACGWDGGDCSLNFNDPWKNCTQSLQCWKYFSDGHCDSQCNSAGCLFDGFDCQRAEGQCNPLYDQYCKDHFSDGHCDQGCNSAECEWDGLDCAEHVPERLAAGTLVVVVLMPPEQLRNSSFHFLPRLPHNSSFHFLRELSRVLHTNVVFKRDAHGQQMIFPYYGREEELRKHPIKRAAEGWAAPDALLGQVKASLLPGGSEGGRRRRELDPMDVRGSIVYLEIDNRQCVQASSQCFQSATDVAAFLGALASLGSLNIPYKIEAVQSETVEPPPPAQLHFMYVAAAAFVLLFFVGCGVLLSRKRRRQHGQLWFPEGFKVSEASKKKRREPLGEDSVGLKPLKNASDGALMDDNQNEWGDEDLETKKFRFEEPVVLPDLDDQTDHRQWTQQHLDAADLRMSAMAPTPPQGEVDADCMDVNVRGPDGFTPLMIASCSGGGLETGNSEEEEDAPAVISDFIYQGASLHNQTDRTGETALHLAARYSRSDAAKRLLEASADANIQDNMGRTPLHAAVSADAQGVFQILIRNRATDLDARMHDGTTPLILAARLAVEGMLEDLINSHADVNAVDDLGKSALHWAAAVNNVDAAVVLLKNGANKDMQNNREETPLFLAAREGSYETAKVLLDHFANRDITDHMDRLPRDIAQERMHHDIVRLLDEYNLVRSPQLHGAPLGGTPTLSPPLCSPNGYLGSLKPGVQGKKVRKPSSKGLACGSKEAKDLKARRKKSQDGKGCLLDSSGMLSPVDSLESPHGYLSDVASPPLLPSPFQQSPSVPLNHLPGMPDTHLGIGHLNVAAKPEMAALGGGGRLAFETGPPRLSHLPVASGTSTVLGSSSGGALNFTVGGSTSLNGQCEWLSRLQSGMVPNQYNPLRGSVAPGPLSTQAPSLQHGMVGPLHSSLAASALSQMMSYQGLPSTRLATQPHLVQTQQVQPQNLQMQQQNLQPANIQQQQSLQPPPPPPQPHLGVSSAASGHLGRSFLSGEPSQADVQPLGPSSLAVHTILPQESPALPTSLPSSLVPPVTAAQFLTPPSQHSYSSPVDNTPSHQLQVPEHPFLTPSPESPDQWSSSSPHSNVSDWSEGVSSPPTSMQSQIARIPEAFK

[3] = target: T3, Notch1 receptor with L1575P mutation (HPB-ALL cells) (UniProt P46531 19-2555, limits assumed); test: cell-based or functional assay
[4] = target: T3, Notch1 receptor with L1575P mutation …; test: cell-based or functional assay; remark: listed apart in the source
[5] = target: T4, full-length mouse Notch1 expressed on the cell surface of U-2 OS cells (mouse, UniProt Q01705 19-2531); test: cell-based or functional assay
T4 sequence (Q01705 19-2531): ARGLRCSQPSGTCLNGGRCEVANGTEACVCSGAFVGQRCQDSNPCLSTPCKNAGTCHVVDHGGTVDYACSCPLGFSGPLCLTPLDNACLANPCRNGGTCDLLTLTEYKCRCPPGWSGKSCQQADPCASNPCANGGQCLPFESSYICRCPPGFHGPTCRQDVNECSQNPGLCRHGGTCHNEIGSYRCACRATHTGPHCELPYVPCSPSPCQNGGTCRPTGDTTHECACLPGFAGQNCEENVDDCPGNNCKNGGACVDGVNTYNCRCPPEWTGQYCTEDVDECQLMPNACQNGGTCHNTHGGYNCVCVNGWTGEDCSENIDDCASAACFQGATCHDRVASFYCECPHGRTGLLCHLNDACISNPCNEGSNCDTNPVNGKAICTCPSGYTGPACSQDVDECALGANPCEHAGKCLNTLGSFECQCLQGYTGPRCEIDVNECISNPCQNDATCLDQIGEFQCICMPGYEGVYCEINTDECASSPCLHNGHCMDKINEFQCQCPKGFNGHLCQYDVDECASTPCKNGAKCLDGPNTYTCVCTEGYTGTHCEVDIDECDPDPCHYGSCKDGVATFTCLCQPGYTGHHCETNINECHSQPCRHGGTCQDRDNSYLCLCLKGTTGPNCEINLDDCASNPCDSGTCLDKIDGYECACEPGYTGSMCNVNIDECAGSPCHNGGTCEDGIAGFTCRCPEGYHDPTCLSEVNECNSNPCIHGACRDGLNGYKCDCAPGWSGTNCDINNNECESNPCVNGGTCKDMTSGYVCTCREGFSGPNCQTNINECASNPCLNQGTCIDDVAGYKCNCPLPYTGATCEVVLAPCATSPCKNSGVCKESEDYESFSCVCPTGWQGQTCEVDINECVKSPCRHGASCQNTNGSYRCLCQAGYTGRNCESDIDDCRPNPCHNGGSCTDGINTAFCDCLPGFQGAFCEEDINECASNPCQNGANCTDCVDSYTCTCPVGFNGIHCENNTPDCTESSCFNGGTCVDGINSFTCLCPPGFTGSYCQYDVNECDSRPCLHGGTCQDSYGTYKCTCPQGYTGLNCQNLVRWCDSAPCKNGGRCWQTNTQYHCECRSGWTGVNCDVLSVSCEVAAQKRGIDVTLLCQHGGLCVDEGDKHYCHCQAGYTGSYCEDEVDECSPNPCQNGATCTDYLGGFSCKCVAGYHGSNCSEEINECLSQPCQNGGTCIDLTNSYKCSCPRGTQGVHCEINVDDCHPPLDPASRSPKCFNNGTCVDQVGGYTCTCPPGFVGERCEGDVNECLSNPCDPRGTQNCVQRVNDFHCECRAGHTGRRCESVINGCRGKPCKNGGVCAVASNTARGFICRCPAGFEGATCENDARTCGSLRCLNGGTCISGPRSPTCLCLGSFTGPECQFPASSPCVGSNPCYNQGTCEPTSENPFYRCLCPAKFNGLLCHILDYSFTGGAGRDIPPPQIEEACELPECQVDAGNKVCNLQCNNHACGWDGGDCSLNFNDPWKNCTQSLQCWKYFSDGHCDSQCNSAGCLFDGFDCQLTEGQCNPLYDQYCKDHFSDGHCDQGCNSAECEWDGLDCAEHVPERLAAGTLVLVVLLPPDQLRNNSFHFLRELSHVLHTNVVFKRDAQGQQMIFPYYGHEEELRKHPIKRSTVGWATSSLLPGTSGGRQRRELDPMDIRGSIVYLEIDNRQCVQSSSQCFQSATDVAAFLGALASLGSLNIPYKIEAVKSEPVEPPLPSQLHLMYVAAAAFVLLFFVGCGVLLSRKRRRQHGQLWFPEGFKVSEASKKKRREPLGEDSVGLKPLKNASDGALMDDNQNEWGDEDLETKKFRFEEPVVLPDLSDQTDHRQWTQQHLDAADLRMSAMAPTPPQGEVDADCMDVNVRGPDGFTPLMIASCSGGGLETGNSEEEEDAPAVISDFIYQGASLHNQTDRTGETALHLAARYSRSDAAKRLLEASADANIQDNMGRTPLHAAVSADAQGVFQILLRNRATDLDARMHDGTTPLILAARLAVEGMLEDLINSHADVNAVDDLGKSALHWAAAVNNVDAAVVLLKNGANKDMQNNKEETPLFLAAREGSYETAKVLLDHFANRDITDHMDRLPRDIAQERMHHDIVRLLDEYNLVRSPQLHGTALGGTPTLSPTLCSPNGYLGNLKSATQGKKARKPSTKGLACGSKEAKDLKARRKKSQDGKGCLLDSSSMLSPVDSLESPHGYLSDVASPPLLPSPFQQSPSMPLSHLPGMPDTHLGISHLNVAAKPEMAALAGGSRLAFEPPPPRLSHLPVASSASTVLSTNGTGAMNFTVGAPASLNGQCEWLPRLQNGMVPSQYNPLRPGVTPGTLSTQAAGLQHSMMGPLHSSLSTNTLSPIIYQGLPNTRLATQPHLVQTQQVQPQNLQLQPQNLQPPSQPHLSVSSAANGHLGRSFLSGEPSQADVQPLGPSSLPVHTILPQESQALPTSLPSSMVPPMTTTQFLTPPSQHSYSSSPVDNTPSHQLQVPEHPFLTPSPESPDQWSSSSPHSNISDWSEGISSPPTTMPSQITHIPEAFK

[6] = target: T2, full-length human Notch1 expressed on …; test: cell-based or functional assay; remark: listed apart in the source
[7] = target: T2, full-length human Notch1 expressed on …; test: cell-based or functional assay; remark: listed apart in the source
[8] = target: T4, full-length mouse Notch1 expressed on …; test: cell-based ELISA, U-2 OS cells expressing full-length mouse Notch1
Description: (§1) Supernatants from clones displaying positive binding to immunogens in recombinant Notch1 NRR based ELISAs described above were then screened for cell surface Notch1 binding in a cell-based ELISA. U-2 OS cells stably overexpressing human or mouse full length Notch1 protein on cell surface were plated at 50,000 cells/well in 96 well plates (white opaque, BD/VWR) the day before ELISA assay. On the day of the ELISA, culture media were removed from wells and serially diluted (1:3 in blocking buffer) antibody solutions or hybridoma culture supernatants were applied to the plate. Plates were incubated at room temperature for 2 hours before being washed with PBS-Mg/Ca. HRP-conjugated secondary antibody was then applied and incubated with cells for 1 hour as described above for recombinant protein ELISA. Plates were washed with PBS-Mg/Ca before being developed with Pico-Chemiluminescent developing kit (Thermal Scientific), and chemiluminescence measurements were performed per manufacturer's instructions. Data plotting and analyses were performed with Microsoft Excel and Graphpad-Prizm software.

[9] = target: T4, full-length mouse Notch1 expressed on …; test: cell-based or functional assay; remark: listed apart in the source
[10] = target: T2, full-length human Notch1 expressed on …; test: cell-based or functional assay; remark: listed apart in the source
[11] = target: T1, human Notch1 NRR_Avi_His recombinant …; test: SPR (Biacore T100), ratio of KD to that of rat 438-hIgG1
Description: (§2) The kinetic constants of the anti-Notch1 NRR interactions were determined by surface plasmon resonance (Biacore® T100, Biacore Inc., Piscataway, N.J.). Flow cells of a CM5 chip were immobilized with approximately 10,000 Resonance Unit (RU) of anti-human IgG-Fc (Biacore®) in 10 mM Glycine, pH 5.0 at 10 μl/min for 600 seconds. […] Association of four concentrations of human Notch1 NRR_Avi_His recombinant protein (from 3.7-100 nM) and a zero concentration (running buffer) at 100 μl/min were recorded for 3 minutes in TBS with 1 mM CaCl₂. Dissociation of the complexes was measured for 10 minutes. The surface of the chip was regenerated by injecting 3M MgCl₂ with 3 mM EGTA for 60 seconds at 10 μl/min. Curves obtained after subtraction of the reference and buffer signals were fitted to a 1:1 Langmuir binding model with Biacore® T100 Evaluation Software (Biacore®).

[12] = target: T2, full-length human Notch1 expressed on …; test: cell-based ELISA, U-2 OS cells expressing full-length human Notch1
Description: as §1

[13] = target: T2, full-length human Notch1 expressed on …; test: competition ELISA on U-2 OS cells expressing full-length human Notch1; competitor 0.8 nM biotinylated rat 438
Description: (§3) In a similar manner as described for recombinant protein or cell based ELISAs, 96 well cell culture plates were either coated with Notch1 NRR-Avi_His protein (hi-bound co-Star plates), or seeded with full length Notch1 expressing U-2 OS cells (cell culture plate, Co-star), respectively.
(§4) After incubation for 2 hours, the plates were washed, as described above, and HRP-conjugated streptavidin (Southern Biotech) diluted 1:5000 in blocking buffer was applied. Incubation with streptavidin was allowed for 30 min before the plates were washed again and developed with TMB solution for 10 minutes. Developing reaction was stopped by adding 0.18M H₂SO₄ and absorbance at 450 nm was measured. Data plotting and analyses were performed with Microsoft Excel and Graphpad-Prizm software.

[14] = target: T1, human Notch1 NRR_Avi_His recombinant …; test: SPR (Biacore T100), antibody captured by anti-human IgG-Fc, NRR_Avi_His as analyte, 1:1 Langmuir model
Description: as §2

[15] = target: T1, human Notch1 NRR_Avi_His recombinant …; test: competition ELISA on coated human Notch1 NRR_Avi_His; competitor 0.8 nM biotinylated rat 438
Description: as §3, §4

[16] = target: T1, human Notch1 NRR_Avi_His recombinant …; test: SPR (Biacore T100), ratio of KD to that of rat 351
[17] = target: T2, full-length human Notch1 expressed on …; test: competition ELISA on U-2 OS cells expressing full-length human Notch1; competitor 0.8 nM biotinylated rat 351
Description: as §3, §4

Binder | IC50, MTS viability assay of HPB-ALL leukemia cells [4] | Neutralization activity (murine RGA), IC50 [5] | Neutralization activity (Human RGA), IC50 [6] | IC50, Notch1 signaling inhibition co-culture reporter assay [7] | Maximal Inhibition (%), Notch1 signaling inhibition co-culture reporter assay [7] | EC50 [8] | EC50 [12] | Kd [14] | koff [14] | kon [14] | also measured
rat 351-mIgG1 (antibody, V domains shown) VH: EVQLVESGGGLVQPGRSLKVSCLASGFTFSHYGMNWIRQAPGKGLDWVASISRSGSYIRYVDTVKGRFTVSRDIAKNTLYLQMTSLRSEDTALYYCAREGQFGDYFEYWGQGVMVTVSS VL: DIMLTQSPATLSVTPGERISLSCRASQKISTNLHWYQQKPNESPRILIKYASQTISGIPSRFSGSGSGTDFTLHINTVEPEDFSVYYCQQTNSWPLTFGSGTKLEIK | 1.27 nM | 0.42 nM | 0.22 nM | – | – | – | – | – | – | – | Firefly/Renilla Luminescence, human Notch1 reporter cells + 5 mM EDTA, 0.01 µg/mL antibody [1]: 304 Firefly/Renilla ratio; Firefly/Renilla Luminescence, human Notch1 reporter cells + 5 mM EDTA, 0.1 µg/mL antibody [1]: 202 Firefly/Renilla ratio; Firefly/Renilla Luminescence, human Notch1 reporter cells + 5 mM EDTA, 1 µg/mL antibody [1]: 84.8 Firefly/Renilla ratio; Firefly/Renilla Luminescence, human Notch1 reporter cells + 5 mM EDTA, 10 µg/mL antibody [1]: 62.1 Firefly/Renilla ratio; Firefly/Renilla Luminescence, human Notch1 reporter cells + 5 mM EDTA, 30 µg/mL antibody [1]: 57 Firefly/Renilla ratio; Normalized Notch1^ICD level, CCRF-CEM cells, 0.001 µg/ml antibody [2]: 0.982 relative to untreated; Normalized Notch1^ICD level, CCRF-CEM cells, 0.01 µg/ml antibody [2]: 1.04 relative to untreated; Normalized Notch1^ICD level, CCRF-CEM cells, 0.1 µg/ml antibody [2]: 0.413 relative to untreated; Normalized Notch1^ICD level, CCRF-CEM cells, 1 µg/ml antibody [2]: 0.043 relative to untreated; Normalized Notch1^ICD level, CCRF-CEM cells, 10 µg/ml antibody [2]: 0.034 relative to untreated; Normalized Notch1^ICD level, HPB-ALL cells, 0.001 µg/ml antibody [3]: 0.833 relative to untreated; Normalized Notch1^ICD level, HPB-ALL cells, 0.01 µg/ml antibody [3]: 0.886 relative to untreated; Normalized Notch1^ICD level, HPB-ALL cells, 0.1 µg/ml antibody [3]: 0.156 relative to untreated; Normalized Notch1^ICD level, HPB-ALL cells, 1 µg/ml antibody [3]: 0.075 relative to untreated; Normalized Notch1^ICD level, HPB-ALL cells, 10 µg/ml antibody [3]: 0.02 relative to untreated
rat 351(R58Y)-mIgG1 (antibody, V domains shown) VH: EVQLVESGGGLVQPGRSLKVSCLASGFTFSHYGMNWIRQAPGKGLDWVASISRSGSYIYYVDTVKGRFTVSRDIAKNTLYLQMTSLRSEDTALYYCAREGQFGDYFEYWGQGVMVTVSS VL: DIMLTQSPATLSVTPGERISLSCRASQKISTNLHWYQQKPNESPRILIKYASQTISGIPSRFSGSGSGTDFTLHINTVEPEDFSVYYCQQTNSWPLTFGSGTKLEIK | 2.17 nM | – | – | 0.21 nM | 95.3% | – | – | – | – | – | –
rat 351(R58Y/V60A)-mIgG1 (antibody, V domains shown) VH: EVQLVESGGGLVQPGRSLKVSCLASGFTFSHYGMNWIRQAPGKGLDWVASISRSGSYIYYADTVKGRFTVSRDIAKNTLYLQMTSLRSEDTALYYCAREGQFGDYFEYWGQGVMVTVSS VL: DIMLTQSPATLSVTPGERISLSCRASQKISTNLHWYQQKPNESPRILIKYASQTISGIPSRFSGSGSGTDFTLHINTVEPEDFSVYYCQQTNSWPLTFGSGTKLEIK | 2.49 nM | – | – | 0.16 nM | 95.3% | – | – | – | – | – | –
humanized 438 VH1.1/VL1.8 (antibody, human IgG1, kappa, V domains shown, full chains (VH1.1)-hIgG1-3M and (VL1.8)-hkappa) VH: EVQLVESGGGLVQPGGSLRLSCAASGFTFSSFAMAWVRQAPGKGLEWVASISYGGADTYYRDSVKGRFTISRDNAKNSLYLQMNSLRAEDTAVYYCAKDLPYYGYTPFVMDAWGQGTLVTVSS VL: DIQMTQSPSSLSASVGDRVTITCRASQRINTDLHWYQQKPGKAPKVLIKFASQTISGVPSRFSGSGSGTDFTLTISSLQPEDFATYYCQQSNSWPYTFGQGTKLEIKR | 2.26 nM | – | – | – | – | 0.149 nM | 0.203 nM | 2.1 nM | 0.000449 s⁻¹ | 214000 M⁻¹ s⁻¹ | IC50, mouse Notch1 reporter gene co-culture assay (DLL4-HEK293) [9]: 0.46 nM; IC50, human Notch1 reporter gene co-culture assay (DLL4-HEK293) [10]: 0.17 nM; Fold difference from rat 438 [11]: 0.48 fold; EC50 [13]: 3.2 nM; EC50 [15]: 1.2 nM
humanized 351 VH1.0/VL1.4 (antibody, human IgG1, V domains shown) VH: EVQLVESGGGLVQPGGSLRLSCAASGFTFSHYGMNWVRQAPGKGLEWVASISRSGSYIRYVDTVKGRFTISRDNAKNSLYLQMNSLRAEDTAVYYCAREGQFGDYFEYWGQGTLVTVSS VL: DIQMTQSPSSLSASVGDRVTITCRASQKISTNLHWYQQKPGKAPKLLIKYASQTISGVPSRFSGSGSGTDFTLTISSLQPEDFATYYCQQTNSWPLTFGGGTKVEIK | – | 0.49 nM | 0.17 nM | – | – | 0.07 nM | 0.1 nM | 4.88 nM and 4.9 nM | 0.00223 s⁻¹ | 458000 M⁻¹ s⁻¹ | Fold difference from rat 351 [16]: 2.1 fold; EC50 [17]: 2.11 nM

From patent US20160002331A1 (Pfizer, published 2016)
